Patent US20160145322A1 (CRUCELL HOLLAND B V, published 2016)

How the values were obtained:
[1] = molecular target: T1, G protein of RSV A/Long (ATCC Cat. No. VR-26), on virus (Respiratory syncytial virus A/Long, UniProt P20895 1-298); experiment: cell-based or functional assay
T1 sequence (looked up): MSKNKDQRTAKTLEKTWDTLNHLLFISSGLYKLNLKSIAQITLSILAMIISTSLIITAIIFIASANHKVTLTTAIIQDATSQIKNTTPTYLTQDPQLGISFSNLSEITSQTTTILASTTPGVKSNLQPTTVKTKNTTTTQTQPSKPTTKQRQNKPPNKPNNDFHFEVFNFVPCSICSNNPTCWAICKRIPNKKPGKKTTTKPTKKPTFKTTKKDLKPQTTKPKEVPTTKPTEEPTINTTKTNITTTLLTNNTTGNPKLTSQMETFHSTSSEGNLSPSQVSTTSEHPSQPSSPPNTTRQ

[2] = molecular target: G protein of RSV B/18537 (ATCC Cat. No. VR-1580), on virus (Respiratory syncytial virus B/18537); experiment: cell-based or functional assay
[3] = molecular target: T2, Recombinant RSV attachment protein (G protein) corresponding to RSV B/B1 (Respiratory syncytial virus B/B1, UniProt O36633 65-299); experiment: ELISA, coated recombinant protein
T2 construct: also called RSV Gb; Gb
T2 sequence: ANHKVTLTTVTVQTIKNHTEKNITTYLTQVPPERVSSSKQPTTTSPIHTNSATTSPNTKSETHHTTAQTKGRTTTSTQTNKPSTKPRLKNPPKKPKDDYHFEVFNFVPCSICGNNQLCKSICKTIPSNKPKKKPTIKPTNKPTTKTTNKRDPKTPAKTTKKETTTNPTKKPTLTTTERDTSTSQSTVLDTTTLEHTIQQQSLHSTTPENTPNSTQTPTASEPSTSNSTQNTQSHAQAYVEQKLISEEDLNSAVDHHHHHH

[4] = molecular target: T3, Sym-1705 (RSV-G type A central region peptide 145-201) (Respiratory syncytial virus type A, not fully specified; N-terminal biotin); experiment: Octet Red384, streptavidin tips with biotinylated peptide
T3 construct: Synthetic peptide
T3 peptide: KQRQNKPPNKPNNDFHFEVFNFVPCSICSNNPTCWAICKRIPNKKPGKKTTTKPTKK

[5] = molecular target: T4, Sym-1706 (RSV G central conserved domain (CCD) peptide, type A 145-184) (Respiratory syncytial virus type A, N-terminal biotin); experiment: as above
T4 construct: Synthetic peptide, C-terminally truncated against Sym-1705
T4 peptide: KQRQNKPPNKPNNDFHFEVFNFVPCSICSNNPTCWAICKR

[6] = molecular target: T5, Sym-1788 (RSV-G type B central region peptide 145-201) (Respiratory syncytial virus type B, N-terminal biotin); experiment: as above
T5 construct: Synthetic peptide
T5 peptide: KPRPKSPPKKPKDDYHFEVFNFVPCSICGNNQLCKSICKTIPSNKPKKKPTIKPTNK

[7] = molecular target: T6, Sym-1789 (RSV-G type B central region peptide 145-184) (Respiratory syncytial virus type B, N-terminal biotin); experiment: as above
T6 construct: Synthetic peptide, C-terminally truncated against Sym-1788
T6 peptide: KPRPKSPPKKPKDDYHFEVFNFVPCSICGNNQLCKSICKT

[8] = molecular target: T3, Sym-1705 (RSV-G type A central region …); experiment: ELISA, antibody titrated on biotinylated peptide on avidin plate
[9] = molecular target: T4, Sym-1706 (RSV G central conserved …); experiment: as above
[10] = molecular target: T5, Sym-1788 (RSV-G type B central region …); experiment: as above
[11] = molecular target: T6, Sym-1789 (RSV-G type B central region …); experiment: as above

B1: CB030.1 (antibody, V domains shown)
VH: QVQLVQSGAEMKRPGSSVKVSCKASGGTFSTFAINWVRQAPGQGFEWMGGVIPGFDSANYAQKFQGRLTMSADESTSTVYMELSSLRSDDTAVYYCAGNSGYCSGDSCAPNWGPGTLVTVSS
VL: DIVMTQSPLSLPVTPGEPASISCRSSQSLVHSNGYSYLDWYLQKPGQSPQLLIYLGSNRPSGVPDRFSGSGSGTDFTLKISRVEAEDVGVYFCMQNLQTPTFGGGTKVEIK
notes: Tested as human IgG from the pCP9-kappa vector
Neutralization IC50, plaque reduction assay, RSV A/Long [1]: 0.037 µg/mL
Neutralization IC50 (ng/mL), plaque reduction assay, RSV B/18537 [2]: 18.3 ng/mL
binding result [3]: binds
Binding (Octet) [RU] [4]: 0.47 RU
Binding (Octet) [RU] [5]: 0.53 RU
Binding (Octet) [RU] [6]: 0.73 RU
Binding (Octet) [RU] [7]: 1.36 RU
IC50 [8]: ~0.02 µg/mL
IC50 [9]: ~0.02 µg/mL
IC50 [10]: ~0.02 µg/mL
IC50 [11]: ~0.02 µg/mL

B2: CB017.5L (antibody, V domains shown)
VH: QVQLVESGGGVVQPGRSLRLSCSASGFTFSVYAMHWVRQAPGQGLEWVAIIWYDGSNKYYADSVKGRFTISRDNSKETLYLQMNSLRVEDTAVYYCARDPIVGHTRDGLDVWGQGTTVTVSS
VL: SYELTQPPSVSVSPGQTARVTCSGDAMAEQYTYWYQQKPGQAPVLIIFKDTERPSGIPERFSGSSSGTTVTLTISGVQTEDEADYYCQSTDSSGTSWVFGGGTKLTVL
notes: Tested as human IgG from the pCP9-lambda vector
Neutralization IC50, plaque reduction assay, RSV A/Long [1]: 0.0035 µg/mL
Neutralization IC50 (ng/mL), plaque reduction assay, RSV B/18537 [2]: 3.8 ng/mL
Binding (Octet) [RU] [4]: 3.17 RU
Binding (Octet) [RU] [5]: -0.02 RU
IC50 [8]: ~0.02 µg/mL
IC50 [9]: ~0.02 µg/mL
